The values that follow come from patent US20190309093A1.

The target of assay [1] is CD3 on Jurkat luciferase reporter cells (UniProt P07766). Kind of assay: flow cytometry of Jurkat_NFAT_Luc2P cells, PE-A; fold over hIgG. (Flow cytometry measures light scatter and fluorescence of single cells or particles in a stream.)
The target is the same in assay [2]. The experiment in a line: flow cytometry of Jurkat_NFAT_Luc2P cells; reference value, printed in all three panels on the left.
Assay [3] has the same target. Kind of assay: flow cytometry of Jurkat_NFAT_Luc2P cells, FITC-A; fold over hIgG.

In assay [1], Commercial CD3e(HiT3a) (antibody) showed a Fold of 58.

In assay [2], hIgG (antibody) yielded a Fold of 1.

In assay [3], mOKT3 (antibody) returned a Fold of 45.
